{
  "source": "patent US20030092068A1",
  "about": "(ASAHI KASEI, published 2003)",
  "target": "c-Kit (CD117) on human undifferentiated blood cells (UT-7, M07e, cord blood-derived CD34 positive cells) (human, UniProt P10721 26-976)",
  "sequence (P10721 26-976)": "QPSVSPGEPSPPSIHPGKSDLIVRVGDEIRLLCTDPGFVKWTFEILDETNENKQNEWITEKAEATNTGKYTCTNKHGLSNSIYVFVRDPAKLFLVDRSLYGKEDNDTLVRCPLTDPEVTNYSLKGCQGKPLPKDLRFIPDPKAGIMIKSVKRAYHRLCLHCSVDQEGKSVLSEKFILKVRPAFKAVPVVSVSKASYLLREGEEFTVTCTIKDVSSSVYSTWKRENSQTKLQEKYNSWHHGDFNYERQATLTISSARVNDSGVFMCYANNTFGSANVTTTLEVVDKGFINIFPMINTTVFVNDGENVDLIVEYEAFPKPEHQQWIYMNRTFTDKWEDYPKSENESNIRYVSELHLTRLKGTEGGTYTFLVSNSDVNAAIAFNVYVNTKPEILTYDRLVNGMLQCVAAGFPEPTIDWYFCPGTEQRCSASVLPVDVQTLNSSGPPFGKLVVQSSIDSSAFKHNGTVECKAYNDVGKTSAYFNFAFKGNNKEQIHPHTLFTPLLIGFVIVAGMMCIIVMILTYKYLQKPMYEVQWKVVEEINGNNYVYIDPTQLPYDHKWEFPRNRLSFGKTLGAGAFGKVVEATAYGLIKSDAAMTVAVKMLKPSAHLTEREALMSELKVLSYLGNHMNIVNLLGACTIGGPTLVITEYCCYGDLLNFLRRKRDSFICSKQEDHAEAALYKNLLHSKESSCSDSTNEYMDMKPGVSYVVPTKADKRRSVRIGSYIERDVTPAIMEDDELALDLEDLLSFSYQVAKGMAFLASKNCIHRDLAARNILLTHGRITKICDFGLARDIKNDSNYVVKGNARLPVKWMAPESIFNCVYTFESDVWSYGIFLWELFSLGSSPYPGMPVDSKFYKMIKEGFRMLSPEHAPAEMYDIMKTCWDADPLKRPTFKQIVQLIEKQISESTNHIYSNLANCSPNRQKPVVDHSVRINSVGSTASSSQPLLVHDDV",
  "assay": "cell-based or functional assay",
  "data": [
    {"binder": "polypeptide (CARex-mSCF), being CAR extracellular region linked with mouse SCF (other) LSITTPEEMIEKAKGETAYLPCKFTLSPEDQGPLDIEWLISPADNQKVDQVIILYSGDKIYDDYYPDLKGRVHFTSNDLKSGDASINVTNLQLSDIGTYQCKVKKAPGVANKKIHLVVLVKPSGARCYVDGSEEIGSDFKIKCEPKEGSLPLQYEWQKLSDSQKMPTSWLAEMTSSVISVKNASSEYSGTYSCTVRNRVGSDQCLLRLNVVPPSNKAHHHHHHSASASAKEICGNPVTDNVKDITKLVANLPNDYMITLNYVAGMDVLPSHCWLRDMVIQLSLSLTTLLDKFSNISEGLSNYSIIDKLGKIVDDLVLCMEENAPKNIKESPKRPETRSFTPEEFFSIFNRSIDAFKDFMVASDTSDCVLSSTLGPEKDSRVSVTKPFMLPPVA", "values": [
      {"measurement": "GFP positive cell ratio, M07e cells, Ax1CAgfp at MOI 100 (adenovirus alone 0.5%)", "result": 82, "unit": "%"}
    ]}
  ]
}
